This note sets out measurements from paper PMC3098718.

Where “and” joins values, the source holds several entries; their conditions need not be identical. Identical values can stand only once. Like-named read-outs stand apart in the source and are kept apart here.

Experiment [1] concerns the target FLAG::NOS-3 (S644E, T648E), phospho-mimetic (C. elegans). Nature of the experiment: pull-down.
Experiment [2] shares this target. Nature of the experiment: pull-down. This is another data set of the same source.

B1: FBF-1 (natural protein)
chain: MDQSKMRYTNQFRKTPQKPTSTEVGNHHTPAHSPMAQHETSMWNFNSLNPYFSMLNMNDGMNYARHQQNHIVTSRPPTPLTDLMSLRSFQSFPNVFMPVSRSRTSSFIQSDTDSSRLEPDDFSQNVRYCSTEIDRNNSSSKNDHLKYSRPALSRNSRSFTRSNNVLPTWSLDSNGEMRSRLSLSEVLDSGDLMKFAVDKTGCQFLEKAVKGSLTSYQKFQLFEQVIGRKDDFLKLSTNIFGNYFVQEIIGMSLTTYDDDNIKRQEKLKNFISSQMTDMCLDKFACRVIQSSLQNMDLSLACKLVQALPRDARLIAICVDQNANHVIQKVVAVIPLKNWEFIVDFVATPEHLRQICFDKYGCRVVQTIIEKLTADSINVDLTSAAQHLRERALQRLMTSVTNRCQELATNEYANYIIQHIVSNDDLAVYRECIIEKCLMRNLLSLSQEKFASHVVEKAFLHAPMELLAEMMDEIFDGYMPHPGTGKDALDIMMFHQFGNYVVQCMLTICCDAVSGRRQTKEGSYDHANSFQVWLKKLHSRVTKERHRLSRFSSGKKMIETLAHLRSTHPIYGLQSSGHESFKTDCFSTASEHDGLELEKNGIEEGNLRLMRTFSP
modifications: S^35 labeled methionine
For the molecule B1, the fold reduction of FBF-1 binding compared to wild-type NOS-3 in experiment [1] was 14 fold; in experiment [2], 17 fold and > 20 fold.
